Earlier results, collected in PMC7927047.

What was measured:
[1] = target: Cbl-b (Type I orientation, R904) (Homo sapiens) (UniProt Q13191); assay: NMR titration
[2] = target: Cbl-b (Type II orientation, R911) (Homo sapiens) (UniProt Q13191); assay: NMR titration
Chain of Cbl-b (Type II orientation, R911) (Homo sapiens) (Q13191 whole entry): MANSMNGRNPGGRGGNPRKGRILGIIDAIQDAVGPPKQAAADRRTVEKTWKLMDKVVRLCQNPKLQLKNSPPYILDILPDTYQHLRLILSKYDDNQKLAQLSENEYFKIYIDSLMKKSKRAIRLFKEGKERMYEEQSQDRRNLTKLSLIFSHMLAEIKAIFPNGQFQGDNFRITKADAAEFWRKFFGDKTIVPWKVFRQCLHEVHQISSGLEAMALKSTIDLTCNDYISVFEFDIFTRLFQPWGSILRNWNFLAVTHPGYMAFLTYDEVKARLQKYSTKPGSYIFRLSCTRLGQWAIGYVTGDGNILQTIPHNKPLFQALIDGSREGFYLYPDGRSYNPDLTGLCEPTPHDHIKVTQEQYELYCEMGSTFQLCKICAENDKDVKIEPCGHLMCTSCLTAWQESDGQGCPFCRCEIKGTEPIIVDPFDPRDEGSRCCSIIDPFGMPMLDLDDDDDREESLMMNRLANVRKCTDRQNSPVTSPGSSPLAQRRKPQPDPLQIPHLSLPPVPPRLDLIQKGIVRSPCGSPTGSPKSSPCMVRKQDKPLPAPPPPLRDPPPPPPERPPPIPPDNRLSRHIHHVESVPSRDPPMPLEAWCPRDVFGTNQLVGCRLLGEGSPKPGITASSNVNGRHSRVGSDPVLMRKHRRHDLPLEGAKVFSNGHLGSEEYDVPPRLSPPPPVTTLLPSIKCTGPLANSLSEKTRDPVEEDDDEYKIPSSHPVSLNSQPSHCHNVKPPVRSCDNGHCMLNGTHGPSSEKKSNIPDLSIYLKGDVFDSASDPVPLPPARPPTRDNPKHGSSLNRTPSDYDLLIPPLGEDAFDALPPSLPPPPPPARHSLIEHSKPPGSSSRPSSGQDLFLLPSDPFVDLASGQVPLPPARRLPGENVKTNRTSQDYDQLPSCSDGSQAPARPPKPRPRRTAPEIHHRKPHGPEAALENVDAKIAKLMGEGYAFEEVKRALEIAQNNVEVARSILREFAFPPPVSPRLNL

Chain of CIN85 SH3 (Q96B97 1-58): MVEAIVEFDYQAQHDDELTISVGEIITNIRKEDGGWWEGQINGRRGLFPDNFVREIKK
Chain of Cbl-b (Type I orientation, R904) (Homo sapiens) (Q13191 whole entry): as the sequence (Q13191 whole entry) above

In the case of CIN85 SH3 (from UniProt Q96B97), the Kd [1] is given as 46.9 µM and the Kd [2] is given as 2 µM.
